Sequences and labels used below:
T1: HumanB7-H4 (Homo sapiens, UniProt Q7Z7D3)
T1 construct: Human B7H4 ECD; FLAG; 10His; made in house
T1 sequence (Q7Z7D3 25-259 limits assumed): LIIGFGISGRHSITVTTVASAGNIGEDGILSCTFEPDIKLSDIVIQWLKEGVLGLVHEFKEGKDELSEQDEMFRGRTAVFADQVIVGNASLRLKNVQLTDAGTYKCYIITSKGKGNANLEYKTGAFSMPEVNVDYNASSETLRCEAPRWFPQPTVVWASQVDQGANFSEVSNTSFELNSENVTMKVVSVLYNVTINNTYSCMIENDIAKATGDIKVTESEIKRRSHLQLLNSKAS

T2: MurineB7-H4 (Mus musculus, UniProt Q7TSP5)
T2 construct: Mouse B7H4 ECD; FLAG (C); 10His (C); made in house
T2 sequence (Q7TSP5 25-257 limits assumed): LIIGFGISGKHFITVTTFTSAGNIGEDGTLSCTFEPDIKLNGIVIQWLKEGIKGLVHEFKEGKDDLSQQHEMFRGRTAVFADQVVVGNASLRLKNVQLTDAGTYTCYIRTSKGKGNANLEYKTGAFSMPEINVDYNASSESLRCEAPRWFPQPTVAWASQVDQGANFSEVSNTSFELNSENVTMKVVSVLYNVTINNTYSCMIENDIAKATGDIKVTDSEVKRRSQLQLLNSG

T3: monomeric B7-H4-FLAG (Homo sapiens, UniProt Q7Z7D3)
T3 construct: 10His; made in house
T3 sequence (Q7Z7D3 25-259 limits assumed): T1 sequence (Q7Z7D3 25-259 limits assumed)

T4: recombinant mouse B7-H4 (Mus musculus, UniProt Q7TSP5)
T4 sequence (Q7TSP5 25-257): T2 sequence (Q7TSP5 25-257 limits assumed)

B1: ZY0EOB-F05: anti-B7-H4 antibody clone, VH SEQ ID NO: 35, VL SEQ ID NO: 36 (antibody, V domains shown)
VH: QVQLQESGPGLVKPSQTLSLTCTVSDGSISSGGYYWSWIRQHPGKGLEWIGNIYYSGSTYYNPSLKSRVTISVDTSKNQFSLKLNSVTAADTAVYYCATEKALATVTPSGYENYYTVDVWGQGTTVTVSS
VL: DIQLTQSPSFLSASVGDRVTITCWASQGISSYLAWYQQKPGKAPKLLIYAASTLQSGVPSRFSGSGSGTEFTLTISSLQPEDFATYYCQHLNSYPLTFGGGTKVEIK
B2: ZY0E05-E07: anti-B7-H4 antibody clone, VH SEQ ID NO: 37, VL SEQ ID NO: 38 (antibody, V domains shown)
VH: B1 VH with D26G, N85S, T99R, T105S, T107I, T116V
VL: B1 VL with D17G, S30A, S31G
B3: ZY0EQD-E02: anti-B7-H4 antibody clone, VH SEQ ID NO: 33, VL SEQ ID NO: 34 (antibody, V domains shown)
VH: QVQLQQWGAGLLKPSETLSLTCAVYGGSFSGYYWNWIRQPPGKGLEWIGEINHSGSTSYNPSLKSRVTISVDTSKNQFSLKLSSVTAADTAVYYCARVLYNWNVDSWGQGTLVTVSS
VL: DIQMTQSPSSLSASVGDRVTITCRASQDIRNDVGWYQQKPGKAPKRLIYAASRLQSGVPSRFSGSGSGTEFTLTISSLQPEDFATYYCLQHNSYPRTFGQGTKVEIK
B4: ZY0EPQ-E02: anti-B7-H4 antibody clone, VH SEQ ID NO: 31, VL SEQ ID NO: 32 (antibody, V domains shown)
VH: B3 VH with S58N, S70L, V98N, V104L
VL: B3 VL with D28G, V33L, K42R, A50V, R53S
B5: ZY0EP0-C07: anti-B7-H4 antibody clone, VH SEQ ID NO: 39, VL SEQ ID NO: 40 (antibody, V domains shown)
VH: QVQLVESGGVLVKPGGSLRLSCAASGFTLSDYYMSWIRQAPGMGLEWVSYISSSGSTIYYTDSVKGRFTISRDSAKNSLYLQMNSLRAEDTAVYYCARDGVGFDYWGQGTLVTVSS
VL: EIVLTQSPGTLSLFPGERATLSCRASQSVSSSYLAWYQQKPGQSPRLLIYAASSRATGIPDRFSGSGSGTDFTLTISRLEPEDFAVYYCQQYGSSPLYTFGQGTKLEIK
B6: E02-INT Fab: antigen binding fragment of anti-B7-H4 antibody E02-INT (antibody, V domains shown)
VH: B3 VH with T21A, A23T
VL: B3 VL

Positions count from the first letter of the chain named.

The first experiment concerns the target T1, HumanB7-H4. As to the kind of experiment: ForteBio Octet affinity. In kind it is binding. The settings on record: hIgG1 (n = 1). (In BLI a coated tip is dipped into the sample, and binding shifts an interference pattern.)
As usually defined, the kon is a measure of how fast the partners come together. Higher therefore signals faster complex formation. For the molecule B1, the “kdis” value was found to be 0.000362 s⁻¹ and the “kon” value came out at 31000 M⁻¹ s⁻¹.
As to B2, the “kdis” value was found to be 0.000318 s⁻¹ and the “kon” value was found to be 21700 M⁻¹ s⁻¹.
B3: the “kdis” value was found to be 0.00321 s⁻¹ and the on-rate constant (kon) was found to be 216000 M⁻¹ s⁻¹.
Turning to B4, the “kdis” value was found to be 0.00208 s⁻¹ and the “kon” value came to 85900 M⁻¹ s⁻¹.
The like results for B5 were, in that order, 0.000363 s⁻¹ and 48800 M⁻¹ s⁻¹.

Staying with this experiment, now noted: hIgG1-TM (n = 4-7).
Regarding B1, the “kdis” value came to 0.000355 s⁻¹ and the “kon” value was 26500 M⁻¹ s⁻¹.
In the case of B2, the “kdis” value was determined as 0.000338 s⁻¹ and the “kon” value was 17100 M⁻¹ s⁻¹.
Turning to B3, the “kdis” value is 0.00278 s⁻¹ and the “kon” value was determined as 193000 M⁻¹ s⁻¹.
For B4 the same measures were 0.00182 s⁻¹ and 70900 M⁻¹ s⁻¹.
Consider B5, for which the “kdis” value was 0.000397 s⁻¹ and the association rate constant (kon) was determined as 41600 M⁻¹ s⁻¹.

The target of the next experiment is T2, MurineB7-H4. The experiment can be described thus: ForteBio Octet affinity. The settings on record: hIgG1 (n = 1). The experiment is classed as binding, murine.
In the case of B1, the “kdis” value was determined as 0.000493 s⁻¹ and the “kon” value worked out at 24900 M⁻¹ s⁻¹.
Take B2: the “kdis” value turned out to be 0.000415 s⁻¹ and the on-rate (kon) was determined as 17900 M⁻¹ s⁻¹.
The like results for B3 were, in that order, 0.213 s⁻¹ and 341000 M⁻¹ s⁻¹.
On to B4, for which the “kdis” value stood at 0.0498 s⁻¹ and the “kon” value amounted to 100000 M⁻¹ s⁻¹.
Regarding B5, the “kdis” value is 0.000551 s⁻¹ and the “kon” value was determined as 60200 M⁻¹ s⁻¹.

Still in this experiment, the particulars now being: hIgG1-TM (n = 4-7).
In the case of B1, the “kdis” value amounted to 0.000476 s⁻¹ and the “kon” value stood at 18700 M⁻¹ s⁻¹.
Consider B2, for which the “kdis” value came to 0.000361 s⁻¹ and the “kon” value was 12100 M⁻¹ s⁻¹.
As for B3, the “kdis” value worked out at 0.126 s⁻¹ and the “kon” value was 203000 M⁻¹ s⁻¹.
Regarding B4, the “kdis” value came to 0.0304 s⁻¹ and the “kon” value came out at 76700 M⁻¹ s⁻¹.
For B5, the “kdis” value came to 0.000524 s⁻¹ and the “kon” value stood at 43000 M⁻¹ s⁻¹.

The target in a further experiment is T3, monomeric B7-H4-FLAG. The experiment can be described thus: HTRF epitope binning. In kind it is binding.
Conditions: not given
Here is the method:
Epitope binning was performed in an HTRF assay format using the exemplary antibodies (IgG1-TM) conjugated with DyLight-649 binding to the monomeric B7-H4-FLAG LCD with detection with europium conjugated anti-FLAG antibody.
Bin 1 was defined with the ZY0EPQ-E02, ZY0EQD-E02 and ZY0E05-E07 antibodies fully inhibiting each other, and only partial inhibiting ZY0EP0-C07. Bin 2 was defined with the ZY0EOB-F05 antibody fully competing with all antibodies and all antibodies fully competing with it. Bin 3 was defined with ZY0EP0-C07 partially competing with antibodies ZY0EPQ-E02, ZY0EQD-E02 and ZY0E05-E07 (Bin 1).
Background: Time-resolved FRET reads energy transfer from a long-lived donor to a nearby acceptor.
Consider B5, for which the “Epitope Bin” value was “Bin 3”.

The same experiment, now with this note: listed as ZY0EPO-C07.
B5: the “Epitope Bin” value turned out to be 3.

The next experiment deals with OVCAR4 cells. As to the kind of experiment: On-cell western. In kind it is cell-based, human.
Conditions: not given
The procedure:
(§1) The on-cell western method was developed and used to run 5 exemplary antibody clones with the following cells: SKBR3, A549, OVCAR4 (all minus transfections with B7-H4 vector), CHO and HEK cells (plus and minus transfection with full length B7-H4 vector).
(§2) Cells were detached from T175 flasks using Accutase and counted. Transfection method used was essentially that stated in the Invitrogen Lipofectamine LTX protocol (high throughput protocol using the reverse transfection method). 100 μl of cells (4.5×10^4 per 100 μl) was added to 96 well plates containing the DNA-lipofectamine mix. Plates incubated at 37° C. for 18 hours and fixed using 10% buffered formalin overnight. Plates were blocked with Odyssey blocking buffer, incubated with appropriate primary antibodies overnight followed by washing and detection with the appropriate Odyssey secondary antibody.
(§3) Plates were air dried and scanned using the Odyssey Imager using the recommended scan levels provided by the manufacturer.
Regarding B1, the “binding to OVCAR4 cells” value is listed as “bind”.
Regarding B2, the “binding to OVCAR4 cells” value is on record as “bind”.
As to B3, the “binding to OVCAR4 cells” value is reported as “bind”.
On the same count and under the same terms, the same measure for B4: “bind”.

The next experiment has as its system transfected HEKs (full length B7-H4 vector). As to the kind of experiment: On-cell western.
Conditions: not given
In kind it is cell-based. The procedure:
as §1, §2, §3
Regarding B1, the “binding to transfected HEKs” value is given as “good results”.
Still for that read-out and setting: the same measure for B2: “good results”.

Another experiment has as its system transfected CHOs (full length B7-H4 vector). The experiment can be described thus: On-cell western. The experiment is classed as cell-based, Chinese hamster.
Conditions: not given
The procedure:
as §1, §2, §3
Turning to B1, the “binding to transfected CHOs” value is recorded as “bind”.
For B2, the “binding to transfected CHOs” value is on record as “bind”.

A further experiment concerns SKBR3, A549, OVCAR4, CHO and HEK cells. The experiment can be described thus: On-cell western, panel of cell types. The experiment is classed as cell-based. The conditions noted are these: compared with control antibodies (lanes E, U, R, S). Here is the method:
as §1, §2, §3
Take B3: the “binding across cell types” value is “bind a wide spectrum of cell types”.
On to B4, for which the “binding across cell types” value is reported as “bind a wide spectrum of cell types”.

For another experiment, the system named is B7-H4 from human (including a splice variant), cynomolgus macaque, mouse and rat. The experiment can be described thus: Clone ZY0EQD_E02 specificity ELISA. The experiment is classed as binding. The conditions noted are these: Maia format mAbs. (ELISA stands for enzyme-linked immunosorbent assay.)
For B3, the “binding profile to B7-H4 antigens” value is “binding to human, cynomolgus, mouse and rat B7-H4”.

Another experiment deals with T4, recombinant mouse B7-H4. The experiment can be described thus: SPR affinity of Fab. In kind it is binding.
Conditions: not given
Here is the method: The binding affinity of anti-B7-H4 antibody E02-INT Fab for recombinant human, cynomolgus monkey, and mouse B7-H4 variants were determined by surface plasmon resonance (SPR).
As to B6, the “fold lower affinity for mouse than for human B7-H4 antigen” value is recorded as “approximately 100 fold”.

The next experiment concerns B7-H4-SV (splice variant). As to the kind of experiment: ForteBio Octet affinity. The settings on record: hIgG1 (n = 1).
In the case of B1, the “kdis” value is 0.000598 s⁻¹ and the “kon” value was found to be 4710 M⁻¹ s⁻¹.
In the case of B2, the “kdis” value was found to be 0.000528 s⁻¹ and the “kon” value is 2910 M⁻¹ s⁻¹.
The like results for B3 were, in that order, 0.00349 s⁻¹ and 4190 M⁻¹ s⁻¹.
For the molecule B4, the “kdis” value was 0.00252 s⁻¹ and the “kon” value was 2460 M⁻¹ s⁻¹.
Consider B5, for which the “KD (nM)” value was “No Binding”.

The experiment is the same for the next values; noted with them: hIgG1-TM (n = 4-7).
For the molecule B1, the “kdis” value turned out to be 0.000584 s⁻¹ and the “kon” value was 3350 M⁻¹ s⁻¹.
Take B2: the “kdis” value amounted to 0.000499 s⁻¹ and the “kon” value was found to be 1890 M⁻¹ s⁻¹.
For B3 the same measures were 0.00269 s⁻¹ and 3360 M⁻¹ s⁻¹.
The like results for B4 were, in that order, 0.00229 s⁻¹ and 1380 M⁻¹ s⁻¹.
Take B5: the “KD (nM)” value is “No Binding”.

Still in this experiment, the particulars now being: summary Table 14.
Regarding B5, the “Octet KD (nM)” value is on record as “No Binding”.

The record behind these values is patent publication US20240239894A1, “THERAPEUTIC BINDING MOLECULES” (MedImmune Limited, priority 2020, published 2024).
